# From publication PMC8989681, “Functional and structural deficiencies of Gemin5 variants associated with neurological disorders” (Life Science Alliance, 2022)
# Assays:
# [1] = target: T1, G5_(845-1508)-R1016C-TAP (human, UniProt Q8TEQ6 845-1508, R1016C); assay: affinity purification with mass spectrometry; G5_(845-1508)-TAP baits expressed in HEK293; TAP purification, in-gel trypsin digestion, LC-MS/MS, PEAKS; two biological replicates; at least two distinct peptides; conditions: partners not purified
# T1 construct: Vector pcDNA3-CTAP; source: HEK293, transfected, in soluble cell extract; purified by TAP
# T1 sequence (looked up): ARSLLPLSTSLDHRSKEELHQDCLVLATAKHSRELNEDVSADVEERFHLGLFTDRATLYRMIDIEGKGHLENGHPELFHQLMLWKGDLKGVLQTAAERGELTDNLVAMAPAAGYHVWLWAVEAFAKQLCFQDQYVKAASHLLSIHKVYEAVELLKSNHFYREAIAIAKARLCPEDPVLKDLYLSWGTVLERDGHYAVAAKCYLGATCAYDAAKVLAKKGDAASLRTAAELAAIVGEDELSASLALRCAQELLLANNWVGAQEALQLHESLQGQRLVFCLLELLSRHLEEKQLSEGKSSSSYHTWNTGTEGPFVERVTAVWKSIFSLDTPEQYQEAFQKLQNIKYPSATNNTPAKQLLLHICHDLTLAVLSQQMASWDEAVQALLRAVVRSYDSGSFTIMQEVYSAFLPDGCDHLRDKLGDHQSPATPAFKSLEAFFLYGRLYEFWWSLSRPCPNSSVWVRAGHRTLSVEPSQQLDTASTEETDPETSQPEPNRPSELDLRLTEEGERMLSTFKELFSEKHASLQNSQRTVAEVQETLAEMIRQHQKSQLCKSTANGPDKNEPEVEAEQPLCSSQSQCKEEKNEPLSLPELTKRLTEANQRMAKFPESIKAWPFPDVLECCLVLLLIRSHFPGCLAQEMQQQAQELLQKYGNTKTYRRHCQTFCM
# [2] = target: T2, G5_(845-1508)-D1019E-TAP (human, UniProt Q8TEQ6 845-1508, D1019E); assay: as above; conditions: partners not purified
# T2 construct: Vector pcDNA3-CTAP; source: HEK293, transfected, in soluble cell extract; purified by TAP
# T2 sequence (looked up): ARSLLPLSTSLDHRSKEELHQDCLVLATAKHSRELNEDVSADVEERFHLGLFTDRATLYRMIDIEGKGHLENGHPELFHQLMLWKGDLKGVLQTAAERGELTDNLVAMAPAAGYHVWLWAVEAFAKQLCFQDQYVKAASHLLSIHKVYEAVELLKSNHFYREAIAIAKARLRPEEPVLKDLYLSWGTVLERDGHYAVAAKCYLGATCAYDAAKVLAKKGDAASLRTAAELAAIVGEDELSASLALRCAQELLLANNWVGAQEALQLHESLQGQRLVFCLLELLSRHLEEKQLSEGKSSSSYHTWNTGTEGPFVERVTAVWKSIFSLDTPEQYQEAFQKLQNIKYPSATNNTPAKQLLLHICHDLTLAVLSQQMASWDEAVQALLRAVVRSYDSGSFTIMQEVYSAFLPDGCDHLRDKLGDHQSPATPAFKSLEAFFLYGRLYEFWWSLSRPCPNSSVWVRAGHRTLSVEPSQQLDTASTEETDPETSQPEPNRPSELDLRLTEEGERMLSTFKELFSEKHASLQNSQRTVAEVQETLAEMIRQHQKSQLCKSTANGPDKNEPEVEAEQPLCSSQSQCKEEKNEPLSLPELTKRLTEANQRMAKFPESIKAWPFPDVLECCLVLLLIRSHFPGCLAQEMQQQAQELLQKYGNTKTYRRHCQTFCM
# [3] = target: T3, G5_(845-1508)-L1367P-TAP (human, UniProt Q8TEQ6 845-1508, L1367P); assay: as above; conditions: partners not purified
# T3 construct: Vector pcDNA3-CTAP; Expressed at lower levels than the WT; also called RBS1 variant L1367P; source: HEK293, transfected, in soluble cell extract; purified by TAP
# T3 sequence (looked up): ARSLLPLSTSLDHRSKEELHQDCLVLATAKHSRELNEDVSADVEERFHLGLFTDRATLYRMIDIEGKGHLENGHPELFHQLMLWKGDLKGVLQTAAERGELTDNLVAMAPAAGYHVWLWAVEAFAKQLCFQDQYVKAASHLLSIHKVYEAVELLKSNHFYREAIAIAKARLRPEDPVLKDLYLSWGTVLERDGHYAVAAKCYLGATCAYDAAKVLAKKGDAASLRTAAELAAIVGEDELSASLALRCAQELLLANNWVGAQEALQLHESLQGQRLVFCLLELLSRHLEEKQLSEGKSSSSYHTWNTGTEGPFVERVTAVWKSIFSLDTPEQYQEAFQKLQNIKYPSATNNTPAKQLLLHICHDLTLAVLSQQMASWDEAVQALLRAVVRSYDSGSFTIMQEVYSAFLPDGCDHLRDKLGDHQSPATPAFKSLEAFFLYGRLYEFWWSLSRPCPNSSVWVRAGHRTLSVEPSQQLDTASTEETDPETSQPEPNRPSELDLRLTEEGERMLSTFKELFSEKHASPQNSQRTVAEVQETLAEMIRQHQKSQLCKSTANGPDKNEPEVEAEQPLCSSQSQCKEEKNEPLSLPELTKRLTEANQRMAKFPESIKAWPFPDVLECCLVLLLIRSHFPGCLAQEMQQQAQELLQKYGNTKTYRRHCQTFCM
# [4] = target: T1, G5_(845-1508)-R1016C-TAP; assay: co-IP; G5_(845-1508)-TAP baits expressed 24 h in HEK293; complexes purified by TAP (IgG Sepharose, TEV protease, calmodulin); endogenous Gemin5 and bait detected by WB with anti-Gemin5; Gemin5 intensity normalised to the purified bait; conditions: partners not purified
# [5] = target: T2, G5_(845-1508)-D1019E-TAP; assay: as above; conditions: partners not purified
# [6] = target: T4, G5_(845-1508)-A951E-TAP (human), Q8TEQ6; assay: as above; conditions: remark: other sources report otherwise
# T4 chain: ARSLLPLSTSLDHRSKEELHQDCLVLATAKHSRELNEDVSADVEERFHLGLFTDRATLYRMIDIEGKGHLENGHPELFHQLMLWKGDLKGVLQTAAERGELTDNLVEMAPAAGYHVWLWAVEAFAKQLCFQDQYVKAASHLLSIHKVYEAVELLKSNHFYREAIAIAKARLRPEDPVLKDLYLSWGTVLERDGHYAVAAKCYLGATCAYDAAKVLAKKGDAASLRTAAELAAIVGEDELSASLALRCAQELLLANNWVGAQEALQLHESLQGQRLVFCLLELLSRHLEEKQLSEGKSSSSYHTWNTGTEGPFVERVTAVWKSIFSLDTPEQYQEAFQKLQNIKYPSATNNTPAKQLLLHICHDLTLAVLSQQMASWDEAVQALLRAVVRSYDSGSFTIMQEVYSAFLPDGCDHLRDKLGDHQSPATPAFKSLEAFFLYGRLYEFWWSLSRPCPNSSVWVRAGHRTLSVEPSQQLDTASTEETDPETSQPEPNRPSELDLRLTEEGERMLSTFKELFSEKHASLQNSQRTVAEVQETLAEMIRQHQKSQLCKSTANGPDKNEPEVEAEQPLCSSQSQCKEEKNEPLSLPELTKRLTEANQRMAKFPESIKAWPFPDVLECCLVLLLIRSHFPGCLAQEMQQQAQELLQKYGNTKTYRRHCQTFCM
binder,measurement,setting,value
"endogenous Gemin5 protein (natural protein, human (endogenous in HEK293), UniProt Q8TEQ6 1-1508, looked up, Gemin5, human, full-length endogenous protein of HEK293 cells; also called full-length Gemin5; source: endogenous, HEK293 soluble cell extract) MGQEPRTLPPSPNWYCARCSDAVPGGLFGFAARTSVFLVRVGPGAGESPGTPPFRVIGELVGHTERVSGFTFSHHPGQYNLCATSSDDGTVKIWDVETKTVVTEHALHQHTISTLHWSPRVKDLIVSGDEKGVVFCYWFNRNDSQHLFIEPRTIFCLTCSPHHEDLVAIGYKDGIVVIIDISKKGEVIHRLRGHDDEIHSIAWCPLPGEDCLSINQEETSEEAEITNGNAVAQAPVTKGCYLATGSKDQTIRIWSCSRGRGVMILKLPFLKRRGGGIDPTVKERLWLTLHWPSNQPTQLVSSCFGGELLQWDLTQSWRRKYTLFSASSEGQNHSRIVFNLCPLQTEDDKQLLLSTSMDRDVKCWDIATLECSWTLPSLGGFAYSLAFSSVDIGSLAIGVGDGMIRVWNTLSIKNNYDVKNFWQGVKSKVTALCWHPTKEGCLAFGTDDGKVGLYDTYSNKPPQISSTYHKKTVYTLAWGPPVPPMSLGGEGDRPSLALYSCGGEGIVLQHNPWKLSGEAFDINKLIRDTNSIKYKLPVHTEISWKADGKIMALGNEDGSIEIFQIPNLKLICTIQQHHKLVNTISWHHEHGSQPELSYLMASGSNNAVIYVHNLKTVIESSPESPVTITEPYRTLSGHTAKITSVAWSPHHDGRLVSASYDGTAQVWDALREEPLCNFRGHRGRLLCVAWSPLDPDCIYSGADDFCVHKWLTSMQDHSRPPQGKKSIELEKKRLSQPKAKPKKKKKPTLRTPVKLESIDGNEEESMKENSGPVENGVSDQEGEEQAREPELPCGLAPAVSREPVICTPVSSGFEKSKVTINNKVILLKKEPPKEKPETLIKKRKARSLLPLSTSLDHRSKEELHQDCLVLATAKHSRELNEDVSADVEERFHLGLFTDRATLYRMIDIEGKGHLENGHPELFHQLMLWKGDLKGVLQTAAERGELTDNLVAMAPAAGYHVWLWAVEAFAKQLCFQDQYVKAASHLLSIHKVYEAVELLKSNHFYREAIAIAKARLRPEDPVLKDLYLSWGTVLERDGHYAVAAKCYLGATCAYDAAKVLAKKGDAASLRTAAELAAIVGEDELSASLALRCAQELLLANNWVGAQEALQLHESLQGQRLVFCLLELLSRHLEEKQLSEGKSSSSYHTWNTGTEGPFVERVTAVWKSIFSLDTPEQYQEAFQKLQNIKYPSATNNTPAKQLLLHICHDLTLAVLSQQMASWDEAVQALLRAVVRSYDSGSFTIMQEVYSAFLPDGCDHLRDKLGDHQSPATPAFKSLEAFFLYGRLYEFWWSLSRPCPNSSVWVRAGHRTLSVEPSQQLDTASTEETDPETSQPEPNRPSELDLRLTEEGERMLSTFKELFSEKHASLQNSQRTVAEVQETLAEMIRQHQKSQLCKSTANGPDKNEPEVEAEQPLCSSQSQCKEEKNEPLSLPELTKRLTEANQRMAKFPESIKAWPFPDVLECCLVLLLIRSHFPGCLAQEMQQQAQELLQKYGNTKTYRRHCQTFCM","ratio of peptide reads of region 1-844 to region 845-1508, relative to G5_(845-1508)-WT",[1],0.77
same,"ratio of peptide reads of region 1-844 to region 845-1508, relative to G5_(845-1508)-WT",[2],0.56
same,"ratio of peptide reads of region 1-844 to region 845-1508, relative to G5_(845-1508)-WT",[3],0.9
same,co-IP intensity relative to the WT protein,[4],58%
same,co-IP intensity relative to the WT protein,[5],62%
same,fold by which the recruitment by WT exceeds that by this mutant,[6],10 fold
